Measurements published in the supplement of paper PMC6757056.
± gives the standard deviation of the averaged measurements.

B1: library; a variant is named by its letters at N, in order (parent)
chain: GCUGUCACCGGUGUAUUACCCUAGUGGUCGACCGGUCUGAUGAGUCUNNNNNNAGACGAAACAGC

Experiments:
hypoxanthine [1] = variants of: B1; experiment: FACS-Seq fitted mean relative fluorescence mCherry/BFP without ligand (log10 relative fluorescence); ligand: hypoxanthine (xanthine aptamer); higher = higher reporter protein expression; conditions: HEK293T, ligand present: no
How it was run: (§1)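 Fluorescence figures are normalized fitted normal means of sequenced bin counts. Enriched, lentivirally transduced HEK293T libraries with a ribozyme-switch mCherry reporter and EF1α-BFP were held 48 h with or without ligand, then sorted into 6 mCherry/BFP bins. PCR-amplified, barcoded genomic DNA from each bin was sequenced on MiSeq. Means of log10(mCherry/BFP) were scaled to five spiked-in control ribozymes.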

hypoxanthine [2] = variants of: B1; experiment: normalized RNA/DNA level with ligand (relative to sTRSVctl = 100) (log10 (% of sTRSVctl)); ligand: hypoxanthine (xanthine aptamer); higher = less ribozyme self-cleavage, higher mRNA level; conditions: ligand concentration (+) RNA-Seq: 5 mM, HEK293T, reporter: mCherry (pCS4076), ligand present: yes
Experimental: (§2)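 Hammerhead (sTRSV) ribozyme switch libraries with a ligand aptamer grafted on stem I and a randomized N4-6 loop II, cloned into the 3' UTR of mCherry and transiently transfected into HEK293T cells; RNA-Seq 72 h post transfection with ligand added 1 h before transfection; RNA read count / plasmid DNA read count normalized to the non-cleaving sTRSVctl (x100), log10; sequences with >100 DNA reads. FACS-Seq: lentiviral library sorted into 6 bins after 48 h ligand, log-normal fit mean of mCherry/BFP scaled to controls. Printed sequences are partial switch sequences.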

hypoxanthine [3] = variants of: B1; experiment: normalized RNA/DNA level without ligand (relative to sTRSVctl = 100) (log10 (% of sTRSVctl)); ligand: hypoxanthine (xanthine aptamer); higher = less ribozyme self-cleavage, higher mRNA level; conditions: HEK293T, reporter: mCherry (pCS4076), ligand present: no
Experimental: as §2

hypoxanthine [4] = variants of: B1; experiment: FACS-Seq fitted mean relative fluorescence mCherry/BFP with ligand (log10 relative fluorescence); ligand: hypoxanthine (xanthine aptamer); ligand concentration (+) FACS-Seq: 5 mM; higher = higher reporter protein expression; conditions: HEK293T, ligand present: yes
How it was run: as §1

| Variant | FACS-Seq fitted mean (log10) (hypoxanthine [1]) | normalized RNA/DNA level with ligand (log10) (hypoxanthine [2]) | normalized RNA/DNA level without ligand (log10) (hypoxanthine [3]) | FACS-Seq fitted mean (log10) (hypoxanthine [4]) |
| --- | --- | --- | --- | --- |
| CAUGAG | -0.0522 ± 0.019 | 1.924 ± 0.011 | 1.562 ± 0.0089 | 0.35 ± 0.039 |
| CAUGAC | -0.299 ± 0.099 | 1.937 ± 0.006 | 1.793 ± 0.017 | 0.254 ± 0.046 |
| CAUGAA | 0.0197 ± 0.067 | 1.87 ± 0.026 | 1.68 ± 0.022 | 0.341 ± 0.056 |
| AAGUUG | -0.243 ± 0.014 | 1.626 ± 0.013 | 1.12 ± 0.013 | 0.435 ± 0.052 |
| AAGUUU | -0.231 ± 0.049 | 1.898 ± 0.012 | 1.87 ± 0.023 | -0.254 ± 0.013 |
| AAGUUA | -0.098 ± 0.017 | 1.89 ± 0.02 | 1.613 ± 0.013 | 0.476 ± 0.07 |
| UAGUCC | 0.327 ± 0.0056 | 1.97 ± 0.067 | 1.92 ± 0.023 | 0.646 ± 0.091 |
| UAGUCA | 0.551 ± 0.061 | 1.944 ± 0.0025 | 1.853 ± 0.006 | 0.647 ± 0.03 |
| UAGGCC | 0.378 ± 0.066 | 2.002 ± 0.0047 | 1.954 ± 0.0025 | 0.564 ± 0.03 |
| GAGUAC | 0.301 ± 0.14 | 1.907 ± 0.019 | 1.71 ± 0.041 | 0.51 ± 0.013 |
| GAGUAG | -0.0875 ± 0.065 | 1.57 ± 0.033 | 1.13 ± 0.05 | 0.421 ± 0.051 |
| GAGUAA | 0.154 ± 0.061 | 1.878 ± 0.015 | 1.54 ± 0.023 | 0.427 ± 0.056 |
| GAGUAU | 0.3631 ± 0.0016 | 1.913 ± 0.0071 | 1.69 ± 0.021 | 0.472 ± 0.017 |
| CAGGAA | 0.2364 ± 0.0018 | 1.958 ± 0.014 | 1.58 ± 0.074 | 0.529 ± 0.019 |
| CAGGAU | 0.34323 ± 0.00015 | 1.947 ± 0.013 | 1.682 ± 0.015 | 0.512 ± 0.028 |
| GAUCGG | 0.125 ± 0.0082 | 1.911 ± 0.012 | 1.59 ± 0.07 | 0.418 ± 0.018 |
| CAGCGU | -0.166 ± 0.056 | 1.967 ± 0.017 | 1.89 ± 0.046 | -0.185 ± 0.11 |
| CAGCGG | 0.2617 ± 0.00076 | 1.9 ± 0.031 | 1.48 ± 0.029 | 0.612 ± 0.059 |
| GAUCAC | 0.374 ± 0.035 | 1.99 ± 0.068 | 1.87 ± 0.025 | 0.417 ± 0.071 |
| GAUCAU | 0.447 ± 0.026 | 1.91 ± 0.033 | 1.919 ± 0.018 | 0.521 ± 0.023 |
| GAUCAA | 0.497 ± 0.07 | 1.9 ± 0.03 | 1.833 ± 0.0048 | 0.708 ± 0.034 |
| CAGCUC | 0.219 ± 0.029 | 2.03 ± 0.022 | 1.972 ± 0.014 | 0.115 ± 0.03 |
| AAGCGA | 0.221 ± 0.0035 | 1.91 ± 0.052 | 1.43 ± 0.024 | 0.391 ± 0.04 |
| AAGCGG | -0.261 ± 0.031 | 1.65 ± 0.026 | 1.2 ± 0.027 | 0.442 ± 0.054 |

| Variant | FACS-Seq fitted mean (log10) (hypoxanthine [1]) | normalized RNA/DNA level with ligand (log10) (hypoxanthine [2]) | normalized RNA/DNA level without ligand (log10) (hypoxanthine [3]) | FACS-Seq fitted mean (log10) (hypoxanthine [4]) |
| --- | --- | --- | --- | --- |
| AAGCGU | 0.27 ± 0.0081 | 1.89 ± 0.05 | 1.62 ± 0.035 | 0.579 ± 0.013 |
| GAUGAC | 0.654 ± 0.023 | 1.92 ± 0.02 | 1.72 ± 0.023 | 0.526 ± 0.07 |
| GAUGAG | 0.0708 ± 0.0074 | 1.74 ± 0.028 | 1.3 ± 0.067 | 0.572 ± 0.047 |
| GAUGAA | 0.529 ± 0.025 | 1.886 ± 0.0083 | 1.711 ± 0.013 | 0.52 ± 0.051 |
| GAGGUG | 0.14 ± 0.057 | 1.78 ± 0.031 | 1.33 ± 0.025 | 0.551 ± 0.026 |
| GAUAAU | -0.0227 ± 0.0069 | 1.909 ± 0.0021 | 1.78 ± 0.026 | 0.133 ± 0.006 |
| GAUAAA | 0.6 ± 0.041 | 1.919 ± 0.009 | 1.764 ± 0.0024 | 0.621 ± 0.12 |
| GAUAAG | -0.0234 ± 0.075 | 1.81 ± 0.027 | 1.36 ± 0.025 | 0.43 ± 0.02 |
| GAGCGG | -0.363 ± 0.054 | 1.64 ± 0.037 | 1.21 ± 0.073 | 0.0659 ± 0.25 |
| GAGCGC | 0.507 ± 0.012 | 1.89 ± 0.026 | 1.55 ± 0.017 | 0.556 ± 0.09 |
| GAGCGA | 0.291 ± 0.062 | 1.89 ± 0.03 | 1.497 ± 0.0043 | 0.54 ± 0.037 |
| GAGUUU | 0.34 ± 0.066 | 1.92 ± 0.058 | 1.83 ± 0.026 | 0.348 ± 0.13 |
| GAGUUG | 0.0221 ± 0.018 | 1.62 ± 0.1 | 1.14 ± 0.038 | 0.503 ± 0.022 |
| AAUCAC | -0.698 ± 0.014 | 1.95 ± 0.04 | 1.849 ± 0.0051 | -0.545 ± 0.04 |
| AAUCAU | 0.507 ± 0.019 | 1.9 ± 0.027 | 1.8365 ± 0.00062 | 0.523 ± 0.057 |
| UAUAUG | 0.385 ± 0.02 | 1.88 ± 0.049 | 1.723 ± 0.013 | 0.531 ± 0.025 |
| UAUAUA | 0.814 ± 0.011 | 1.95 ± 0.04 | 1.836 ± 0.018 | 0.838 ± 0.068 |
| AAGGGC | 0.365 ± 0.031 | 1.9146 ± 0.00071 | 1.75 ± 0.023 | 0.576 ± 0.022 |
| AAGGGU | 0.236 ± 0.0092 | 1.835 ± 0.0086 | 1.54 ± 0.072 | 0.4 ± 0.093 |
| AAGGGA | 0.273 ± 0.057 | 1.83 ± 0.035 | 1.44 ± 0.017 | 0.545 ± 0.02 |
| AAGGGG | 0.115 ± 0.014 | 1.78 ± 0.031 | 1.203 ± 0.002 | 0.386 ± 0.1 |
| GAGUCA | 0.644 ± 0.03 | 1.906 ± 0.014 | 1.74 ± 0.056 | 0.707 ± 0.032 |
| GAUCCG | 0.0801 ± 0.012 | 1.94 ± 0.048 | 1.77 ± 0.051 | 0.31 ± 0.0077 |
| UAGCAG | 0.215 ± 0.033 | 1.87 ± 0.02 | 1.61 ± 0.038 | 0.507 ± 0.05 |

| Variant | FACS-Seq fitted mean (log10) (hypoxanthine [1]) | normalized RNA/DNA level with ligand (log10) (hypoxanthine [2]) | normalized RNA/DNA level without ligand (log10) (hypoxanthine [3]) | FACS-Seq fitted mean (log10) (hypoxanthine [4]) |
| --- | --- | --- | --- | --- |
| UAGGGU | 0.526 ± 0.034 | 1.84 ± 0.067 | 1.5 ± 0.027 | 0.632 ± 0.075 |
| UAGGGG | 0.118 ± 0.086 | 1.87 ± 0.037 | 1.5 ± 0.022 | 0.393 ± 0.018 |
| AAUAUG | 0.333 ± 0.056 | 1.84 ± 0.04 | 1.462 ± 0.014 | 0.53 ± 0.0062 |
| AAUAUA | 0.619 ± 0.062 | 1.89 ± 0.024 | 1.78 ± 0.034 | 0.599 ± 0.07 |
| UAUACA | 0.641 ± 0.013 | 1.93 ± 0.053 | 1.854 ± 0.012 | 0.518 ± 0.019 |
| UAUACU | 0.344 ± 0.0075 | 1.93 ± 0.05 | 1.84 ± 0.065 | 0.343 ± 0.066 |
| AAUCGG | 0.134 ± 0.047 | 1.837 ± 0.013 | 1.373 ± 0.006 | 0.58 ± 0.038 |
| AAGCUG | 0.17 ± 0.068 | 1.72 ± 0.032 | 1.23 ± 0.054 | 0.481 ± 0.046 |
| GAGGGC | -0.0173 ± 0.076 | 1.87 ± 0.056 | 1.5 ± 0.021 | 0.367 ± 0.041 |
| CAUACG | 0.394 ± 0.013 | 1.903 ± 0.016 | 1.88 ± 0.079 | 0.469 ± 0.045 |
| CAUCGA | 0.435 ± 0.017 | 1.97 ± 0.052 | 1.84 ± 0.029 | 0.6297 ± 0.0034 |
| GAGCUG | 0.345 ± 0.0035 | 1.86 ± 0.03 | 1.31 ± 0.028 | 0.75 ± 0.083 |
| GAGCUA | 0.221 ± 0.077 | 1.925 ± 0.018 | 1.722 ± 0.004 | 0.293 ± 0.039 |
| AAUGAC | 0.585 ± 0.07 | 1.894 ± 0.0079 | 1.83 ± 0.049 | 0.5447 ± 0.0044 |
| AAUGAG | 0.0392 ± 0.012 | 1.81 ± 0.039 | 1.3 ± 0.022 | 0.472 ± 0.044 |
| GAGCCA | -0.0202 ± 0.12 | 1.93 ± 0.066 | 1.76 ± 0.018 | 0.234 ± 0.1 |
| AAGGAA | 0.159 ± 0.16 | 1.869 ± 0.015 | 1.53 ± 0.0077 | 0.411 ± 0.07 |
| AAGGAG | 0.245 ± 0.003 | 1.62 ± 0.068 | 1.12 ± 0.047 | 0.589 ± 0.11 |
| AAGGAU | 0.678 ± 0.038 | 1.91 ± 0.037 | 1.653 ± 0.013 | 0.732 ± 0.042 |
| GAGGCA | 0.306 ± 0.0093 | 1.937 ± 0.018 | 1.9192 ± 0.0019 | 0.427 ± 0.021 |
| GAGGCU | 0.751 ± 0.037 | 2 ± 0.021 | 1.98 ± 0.036 | 0.721 ± 0.025 |
| GAGGCG | 0.189 ± 0.012 | 1.95 ± 0.012 | 1.68 ± 0.088 | 0.597 ± 0.047 |
| CAGGUA | -0.0109 ± 0.015 | 1.757 ± 0.016 | 1.57 ± 0.014 | 0.148 ± 0.04 |
